Source: patent US20250326823A1

What was measured:
Assay in all cases: cell-based or functional assay
[1] = biological target: SARS-CoV-2 spike (S) protein, variant B.1.1.7 (SARS-CoV-2)
[2] = biological target: SARS-CoV-2 spike (S) protein, variant B.1.351 (SARS-CoV-2)
[3] = biological target: SARS-CoV-2 spike (S) protein, variant B.1.429 (SARS-CoV-2)
[4] = biological target: SARS-CoV-2 spike (S) protein, variant B.1.525 (SARS-CoV-2)
[5] = biological target: SARS-CoV-2 spike (S) protein, variant B.1.526 (SARS-CoV-2)
[6] = biological target: SARS-CoV-2 spike (S) protein, variant B.1.617.1 (SARS-CoV-2)
[7] = biological target: SARS-CoV-2 spike (S) protein, variant B.1.617.2 (SARS-CoV-2)
[8] = biological target: SARS-CoV-2 spike (S) protein, variant B.1.621 (SARS-CoV-2)
[9] = biological target: SARS-CoV-2 spike (S) protein, variant BA.2.86 (SARS-CoV-2) (UniProt P0DTC2)
[10] = biological target: SARS-CoV-2 spike (S) protein, variant BA.2.86 (SARS-CoV-2)
[11] = biological target: SARS-CoV-2 spike (S) protein, variant CH.1.1 (SARS-CoV-2) (UniProt P0DTC2)
[12] = biological target: SARS-CoV-2 spike (S) protein, variant EG.5.1 (SARS-CoV-2) (UniProt P0DTC2)
[13] = biological target: SARS-CoV-2 spike (S) protein, variant EG.5.1 (SARS-CoV-2)
[14] = biological target: SARS-CoV-2 spike (S) protein, variant JN.1 (SARS-CoV-2) (UniProt P0DTC2)
[15] = biological target: SARS-CoV-2 spike (S) protein, variant JN.1 (SARS-CoV-2)
[16] = biological target: SARS-CoV-2 spike (S) protein, variant KP.2.3 (SARS-CoV-2) (UniProt P0DTC2)
[17] = biological target: SARS-CoV-2 spike (S) protein, variant KP.3 (SARS-CoV-2) (UniProt P0DTC2)
[18] = biological target: SARS-CoV-2 spike (S) protein, variant KP.3.1.1 (SARS-CoV-2) (UniProt P0DTC2)
[19] = biological target: SARS-CoV-2 spike (S) protein, variant LB.1 (SARS-CoV-2) (UniProt P0DTC2)
[20] = biological target: SARS-CoV-2 spike (S) protein, variant P.2 (SARS-CoV-2)
[21] = biological target: SARS-CoV-2 spike (S) protein, variant XBB (SARS-CoV-2)
[22] = biological target: SARS-CoV-2 spike (S) protein, variant XBB.1.16.6 (SARS-CoV-2)
[23] = biological target: SARS-CoV-2 spike (S) protein, variant XBB.1.5 (SARS-CoV-2)
[24] = biological target: SARS-CoV-2 spike (S) protein, variant XBB.2.3.2 (SARS-CoV-2)
[25] = biological target: SARS-CoV-2 spike (S) protein, variant XEC (SARS-CoV-2) (UniProt P0DTC2)
[26] = biological target: SARS-CoV-2 spike protein, variant KP.3 (SARS-CoV-2)
[27] = biological target: SARS-CoV-2 spike (S) protein, D614G (SARS-CoV-2) (UniProt P0DTC2)
[28] = biological target: SARS-CoV-2 spike (S) protein, variant BA.2.86 (SARS-CoV-2); remark: listed apart in the source
[29] = biological target: SARS-CoV-2 spike (S) protein, variant CH.1.1 (SARS-CoV-2)
[30] = biological target: SARS-CoV-2 spike (S) protein, variant EG.5.1 (SARS-CoV-2); remark: listed apart in the source
[31] = biological target: SARS-CoV-2 spike (S) protein, variant JN.1 (SARS-CoV-2); remark: listed apart in the source
[32] = biological target: SARS-CoV-2 spike (S) protein, variant KP.2 (SARS-CoV-2)
[33] = biological target: SARS-CoV-2 spike (S) protein, variant KP.2.3 (SARS-CoV-2)
[34] = biological target: SARS-CoV-2 spike (S) protein, variant KP.3 (SARS-CoV-2)
[35] = biological target: SARS-CoV-2 spike (S) protein, variant KP.3.1.1 (SARS-CoV-2)
[36] = biological target: SARS-CoV-2 spike (S) protein, variant LB.1 (SARS-CoV-2)
[37] = biological target: SARS-CoV-2 spike (S) protein, variant XEC (SARS-CoV-2)

Q: ADG20 (antibody) was tested. Which neutralization IC50 [1] did it give?
A: 0.106 nM

Q: What about the neutralization IC80 [1] of the same substance?
A: 0.424 nM

Q: What about the neutralization IC50 [2] of the same substance?
A: 0.011 nM

Q: And the neutralization IC80 [2]?
A: 0.05 nM

Q: And the neutralization IC50 [3]?
A: 0.014 nM

Q: What about the neutralization IC80 [3] of the same substance?
A: 0.061 nM

Q: And the neutralizing activity IC50 [4]?
A: 0.019 nM

Q: What about the neutralizing activity IC80 [4] of the same substance?
A: 0.101 nM

Q: And the neutralizing activity IC50 [5]?
A: 0.019 nM

Q: And the neutralizing activity IC80 [5]?
A: 0.081 nM

Q: What about the neutralization IC50 [6] of the same substance?
A: 0.015 nM

Q: And the neutralization IC80 [6]?
A: 0.071 nM

Q: And the neutralizing activity IC50 [7]?
A: 0.11 nM

Q: And the neutralizing activity IC80 [7]?
A: 0.118 nM

Q: And the neutralizing activity IC50 [8]?
A: 0.026 nM

Q: And the neutralizing activity IC80 [8]?
A: 0.131 nM

Q: And the neutralizing activity IC50 (µg/ml (caption; values match nM)) [9]?
A: > 67

Q: What about the neutralizing activity IC80 (µg/ml (caption; values match nM)) [9] of the same substance?
A: > 67

Q: What about the pseudovirus neutralization IC50 [10] of the same substance?
A: > 67 nM

Q: What about the pseudovirus neutralization IC80 [10] of the same substance?
A: > 67 nM

Q: What about the neutralizing activity IC50 (µg/ml (caption; values match nM)) [11] of the same substance?
A: 13.7

Q: And the neutralizing activity IC80 (µg/ml (caption; values match nM)) [11]?
A: > 67

Q: What about the neutralizing activity IC50 (µg/ml (caption; values match nM)) [12] of the same substance?
A: > 67

Q: What about the neutralizing activity IC80 (µg/ml (caption; values match nM)) [12] of the same substance?
A: > 67

Q: What about the pseudovirus neutralization IC50 [13] of the same substance?
A: > 67 nM

Q: What about the pseudovirus neutralization IC80 [13] of the same substance?
A: > 67 nM

Q: And the neutralizing activity IC50 (µg/ml (caption; values match nM)) [14]?
A: > 67

Q: What about the neutralizing activity IC80 (µg/ml (caption; values match nM)) [14] of the same substance?
A: > 67

Q: And the pseudovirus neutralization IC50 [15]?
A: > 67 nM

Q: What about the pseudovirus neutralization IC80 [15] of the same substance?
A: > 67 nM

Q: And the neutralizing activity IC50 (µg/ml (caption; values match nM)) [16]?
A: > 67

Q: And the neutralizing activity IC80 (µg/ml (caption; values match nM)) [16]?
A: > 67

Q: What about the neutralizing activity IC50 (µg/ml (caption; values match nM)) [17] of the same substance?
A: > 67

Q: And the neutralizing activity IC80 (µg/ml (caption; values match nM)) [17]?
A: > 67

Q: And the neutralizing activity IC50 (µg/ml (caption; values match nM)) [18]?
A: > 67

Q: And the neutralizing activity IC80 (µg/ml (caption; values match nM)) [18]?
A: > 67

Q: And the neutralizing activity IC50 (µg/ml (caption; values match nM)) [19]?
A: > 67

Q: And the neutralizing activity IC80 (µg/ml (caption; values match nM)) [19]?
A: > 67

Q: And the neutralization IC50 [20]?
A: 0.034 nM

Q: And the neutralization IC80 [20]?
A: 0.121 nM

Q: What about the neutralizing activity IC50 [21] of the same substance?
A: 10.6 nM

Q: What about the neutralizing activity IC80 [21] of the same substance?
A: > 67 nM

Q: What about the neutralizing activity IC50 [22] of the same substance?
A: > 67 nM

Q: And the neutralizing activity IC80 [22]?
A: > 67 nM

Q: And the neutralizing activity IC50 [23]?
A: > 67 nM

Q: And the neutralizing activity IC80 [23]?
A: > 67 nM

Q: And the neutralizing activity IC50 [24]?
A: > 67 nM

Q: What about the neutralizing activity IC80 [24] of the same substance?
A: > 67 nM

Q: And the neutralizing activity IC50 (µg/ml (caption; values match nM)) [25]?
A: > 67

Q: What about the neutralizing activity IC80 (µg/ml (caption; values match nM)) [25] of the same substance?
A: > 67

Q: And the IC50 (nM), pseudovirus neutralization [26]?
A: > 67 nM

Q: What about the neutralization IC50 [27] of the same substance?
A: 0.003 mg/L

Q: And the neutralization IC50 [28]?
A: > 10 mg/L

Q: What about the neutralization IC50 [29] of the same substance?
A: 2.06 mg/L

Q: And the neutralization IC50 [30]?
A: > 10 mg/L

Q: What about the neutralization IC50 [31] of the same substance?
A: > 10 mg/L

Q: What about the neutralization IC50 [32] of the same substance?
A: > 10 mg/L

Q: And the neutralization IC50 [33]?
A: > 10 mg/L

Q: And the neutralization IC50 [34]?
A: > 10 mg/L

Q: And the neutralization IC50 [35]?
A: > 10 mg/L

Q: And the neutralization IC50 [36]?
A: > 10 mg/L

Q: And the neutralization IC50 [37]?
A: > 10 mg/L

Q: Which results are given for AZD3152 (antibody)?
A: IC50, pseudovirus neutralization [1]: 0.622 nM; IC80, pseudovirus neutralization [1]: 1.54 nM; IC50, pseudovirus neutralization [2]: 0.163 nM; IC80, pseudovirus neutralization [2]: 0.459 nM; IC50, pseudovirus neutralization [3]: 0.549 nM; IC80, pseudovirus neutralization [3]: 1.39 nM; IC50, pseudovirus neutralization [4]: 0.668 nM; IC80, pseudovirus neutralization [4]: 1.53 nM; IC50, pseudovirus neutralization [5]: 0.329 nM; IC80, pseudovirus neutralization [5]: 1.04 nM; IC50, pseudovirus neutralization [6]: 0.271 nM; IC80, pseudovirus neutralization [6]: 0.687 nM; IC50, pseudovirus neutralization [7]: 0.602 nM; IC80, pseudovirus neutralization [7]: 2.2 nM; IC50, pseudovirus neutralization [8]: 0.265 nM; IC80, pseudovirus neutralization [8]: 0.625 nM; neutralizing activity IC80 (µg/ml (caption; values match nM)) [9]: 2.23; IC50, pseudovirus neutralization [10]: 0.351 nM; IC80, pseudovirus neutralization [10]: 2.23 nM; neutralizing activity IC80 (µg/ml (caption; values match nM)) [11]: 1.59; pseudotyped neutralization potency IC50 [11]: 0.501 nM; pseudotyped neutralization potency IC80 [11]: 1.47 nM; neutralizing activity IC50 (µg/ml (caption; values match nM)) [12]: > 67; neutralizing activity IC80 (µg/ml (caption; values match nM)) [12]: > 67; IC50, pseudovirus neutralization [13]: > 67 nM; IC80, pseudovirus neutralization [13]: > 67 nM; neutralizing activity IC50 (µg/ml (caption; values match nM)) [14]: 5.11; neutralizing activity IC80 (µg/ml (caption; values match nM)) [14]: 28; IC50, pseudovirus neutralization [15]: 5.11 nM; IC80, pseudovirus neutralization [15]: 28 nM; neutralizing activity IC50 (µg/ml (caption; values match nM)) [16]: > 67; neutralizing activity IC80 (µg/ml (caption; values match nM)) [16]: > 67; neutralizing activity IC50 (µg/ml (caption; values match nM)) [17]: > 67; neutralizing activity IC80 (µg/ml (caption; values match nM)) [17]: > 67; neutralizing activity IC50 (µg/ml (caption; values match nM)) [18]: > 67; neutralizing activity IC80 (µg/ml (caption; values match nM)) [18]: > 67; neutralizing activity IC50 (µg/ml (caption; values match nM)) [19]: > 67; neutralizing activity IC80 (µg/ml (caption; values match nM)) [19]: > 67; IC50, pseudovirus neutralization [20]: 0.135 nM; IC80, pseudovirus neutralization [20]: 0.359 nM; IC50, pseudovirus neutralization [21]: 0.0748 nM; IC80, pseudovirus neutralization [21]: 0.349 nM; IC50, pseudovirus neutralization [22]: > 67 nM; IC80, pseudovirus neutralization [22]: > 67 nM; IC50, pseudovirus neutralization [23]: 0.109 nM; IC80, pseudovirus neutralization [23]: 0.355 nM; IC50, pseudovirus neutralization [24]: 0.168 nM; IC80, pseudovirus neutralization [24]: 0.513 nM; neutralizing activity IC50 (µg/ml (caption; values match nM)) [25]: > 67; neutralizing activity IC80 (µg/ml (caption; values match nM)) [25]: > 67; IC50 (nM), pseudovirus neutralization [26]: > 67 nM; neutralization IC50 [27]: 0.015 mg/L; neutralization IC50 [28]: 0.053 mg/L; neutralization IC50 [29]: 0.045 mg/L; neutralization IC50 [30]: > 10 mg/L; neutralization IC50 [31]: 0.766 mg/L; neutralization IC50 [32]: > 10 mg/L; neutralization IC50 [33]: > 10 mg/L; neutralization IC50 [34]: > 10 mg/L; neutralization IC50 [35]: > 10 mg/L; neutralization IC50 [36]: > 10 mg/L; neutralization IC50 [37]: > 10 mg/L
